Results on two molecules are retold here after PMC12785156, “Hydroxylation of HPPD facilitates its PUB11-mediated ubiquitination and degradation in response to oxidative stress in Arabidopsis” (Plant Communications, 2025).

B2: His-AtHPPD (Arabidopsis thaliana 4-hydroxyphenylpyruvate dioxygenase) (enzyme, UniProt P93836 1-445, looked up)
chain: MGHQNAAVSENQNHDDGAASSPGFKLVGFSKFVRKNPKSDKFKVKRFHHIEFWCGDATNVARRFSWGLGMRFSAKSDLSTGNMVHASYLLTSGDLRFLFTAPYSPSLSAGEIKPTTTASIPSFDHGSCRSFFSSHGLGVRAVAIEVEDAESAFSISVANGAIPSSPPIVLNEAVTIAEVKLYGDVVLRYVSYKAEDTEKSEFLPGFERVEDASSFPLDYGIRRLDHAVGNVPELGPALTYVAGFTGFHQFAEFTADDVGTAESGLNSAVLASNDEMVLLPINEPVHGTKRKSQIQTYLEHNEGAGLQHLALMSEDIFRTLREMRKRSSIGGFDFMPSPPPTYYQNLKKRVGDVLSDDQIKECEELGILVDRDDQGTLLQIFTKPLGDRPTIFIEIIQRVGCMMKDEEGKAYQSGGCGGFGKGNFSELFKSIEEYEKTLEAKQLVG
notes: 4-hydroxyphenylpyruvate dioxygenase (AtHPPD), Arabidopsis thaliana, full-length CDS in pET-15b; For MST the His tag was labelled with RED-tris-NTA 2nd generation dye; A low level of self-hydroxylation of phenylalanines is reported also for the untreated protein; also called AtHPPD-WT; His-labeled AtHPPD; source: E. coli BL21(DE3), purified; not shown: His6, N-terminal, kept

Test [1] addresses B2. Nature of the test: MST; His-AtHPPD (or mutants) labelled with RED-tris-NTA 2nd generation, constant 400 nM; GST-PUB11-ARM serially diluted; 25°C; 20 mM HEPES pH 8.0, 100 mM NaCl; three repeats. The conditions noted are these: both partners purified.
A further test addresses T1, full-length MBP-PUB11 (Arabidopsis thaliana, UniProt Q8GUG9 1-612).
T1 construct: U-box E3 ubiquitin ligase PUB11, Arabidopsis thaliana, full-length CDS in pMAL-C2x; not shown: MBP, N-terminal, kept
T1 sequence (looked up): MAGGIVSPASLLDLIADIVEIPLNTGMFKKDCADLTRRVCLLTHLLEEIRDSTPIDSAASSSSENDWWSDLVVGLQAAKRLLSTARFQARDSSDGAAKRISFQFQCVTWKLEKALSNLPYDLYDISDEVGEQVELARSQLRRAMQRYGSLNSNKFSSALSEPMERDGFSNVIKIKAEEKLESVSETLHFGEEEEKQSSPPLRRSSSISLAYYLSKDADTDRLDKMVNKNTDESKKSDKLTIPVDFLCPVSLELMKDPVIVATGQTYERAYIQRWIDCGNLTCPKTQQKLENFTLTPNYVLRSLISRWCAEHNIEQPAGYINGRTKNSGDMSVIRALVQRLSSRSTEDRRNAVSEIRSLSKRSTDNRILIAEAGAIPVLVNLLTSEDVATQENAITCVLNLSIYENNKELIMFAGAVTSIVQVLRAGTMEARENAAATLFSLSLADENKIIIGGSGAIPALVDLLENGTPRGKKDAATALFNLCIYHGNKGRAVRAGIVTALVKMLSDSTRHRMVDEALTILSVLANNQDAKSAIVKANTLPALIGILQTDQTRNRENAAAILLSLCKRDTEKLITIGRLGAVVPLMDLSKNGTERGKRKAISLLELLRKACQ
Nature of the test: pull-down; purified MBP-PUB11 full length or truncated variants (or MBP alone) with purified His-AtHPPD, 4°C; immunoblot with anti-His and anti-MBP. The conditions noted are these: both partners purified.

B1: GST-PUB11-ARM (domain or fragment)
chain: QPAGYINGRTKNSGDMSVIRALVQRLSSRSTEDRRNAVSEIRSLSKRSTDNRILIAEAGAIPVLVNLLTSEDVATQENAITCVLNLSIYENNKELIMFAGAVTSIVQVLRAGTMEARENAAATLFSLSLADENKIIIGGSGAIPALVDLLENGTPRGKKDAATALFNLCIYHGNKGRAVRAGIVTALVKMLSDSTRHRMVDEALTILSVLANNQDAKSAIVKANTLPALIGILQTDQTRNRENAAAILLSLCKRDTEKLITIGRLGAVVPLMDLSKNGTERGKRKAISLLELLRKACQ
modifications: GST carrier omitted. Limits not printed: ARM region taken as everything after the U-box (240-314) to the C-terminus
Consider B1, for which, in test [1], the dissociation constant (Kd) came out at 7.42 µM.

In the case of B2, the binding result with full-length MBP-PUB11 is “binds”.
